Measurements taken from publication PMC4658561, “A mechanism of glucose tolerance and stimulation of GH1 β-glucosidases” (Scientific Reports, 2015).
Where a chain is given by its changes, count along the chain named.

Experiments:
[1] = target: T1, Bgl1A (uncultured bacterium, UniProt D5KX75); experiment: relative activity on pNPG versus glucose concentration; format: biochemical; details: pH […], stimulation at low concentration, transglycosylation acceptor
T1 construct: pET-22b(+) NdeI/XhoI, C-terminal His6 (kept), E. coli BL21(DE3), Ni-NTA purified; GH1, EC 3.2.1.21; residues T228, Q301, F302
T1 sequence (D5KX75 1-442): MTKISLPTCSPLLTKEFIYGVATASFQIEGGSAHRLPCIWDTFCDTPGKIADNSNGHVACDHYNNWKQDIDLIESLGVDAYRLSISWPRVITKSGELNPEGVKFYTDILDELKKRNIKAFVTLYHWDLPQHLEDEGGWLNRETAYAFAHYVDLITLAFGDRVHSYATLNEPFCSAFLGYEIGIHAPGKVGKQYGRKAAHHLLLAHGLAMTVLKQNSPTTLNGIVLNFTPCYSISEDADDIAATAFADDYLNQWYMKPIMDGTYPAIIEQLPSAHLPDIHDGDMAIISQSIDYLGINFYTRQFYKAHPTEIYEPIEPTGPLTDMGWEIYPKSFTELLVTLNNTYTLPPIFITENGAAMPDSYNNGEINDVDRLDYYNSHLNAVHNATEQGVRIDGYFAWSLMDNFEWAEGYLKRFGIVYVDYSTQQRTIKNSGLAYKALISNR

[2] = target: T2, Bgl1B (uncultured bacterium, UniProt D0VEC8); experiment: as above; format: biochemical; details: pH […], product inhibition, competitive
T2 construct: pET-22b(+) NdeI/XhoI, C-terminal His6 (kept), E. coli BL21(DE3), Ni-NTA purified; GH1, EC 3.2.1.21; residues V227, H228, N301, V302
T2 sequence (D0VEC8 1-449): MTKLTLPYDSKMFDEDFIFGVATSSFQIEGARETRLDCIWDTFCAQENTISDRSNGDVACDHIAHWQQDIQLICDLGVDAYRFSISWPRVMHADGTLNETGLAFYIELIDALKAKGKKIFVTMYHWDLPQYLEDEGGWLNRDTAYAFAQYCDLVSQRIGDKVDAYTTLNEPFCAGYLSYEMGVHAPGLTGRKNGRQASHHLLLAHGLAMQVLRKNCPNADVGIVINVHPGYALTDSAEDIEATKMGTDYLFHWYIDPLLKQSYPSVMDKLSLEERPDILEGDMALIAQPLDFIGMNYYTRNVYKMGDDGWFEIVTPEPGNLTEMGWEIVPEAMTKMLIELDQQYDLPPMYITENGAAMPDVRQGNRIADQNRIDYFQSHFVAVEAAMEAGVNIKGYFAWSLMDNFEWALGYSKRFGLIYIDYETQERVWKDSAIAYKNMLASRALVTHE

[3] = target: T3, Bgl1B (uncultured bacterium, UniProt D0VEC8, H228T); experiment: as above; format: biochemical; details: pH […], stimulation at low concentration, transglycosylation acceptor
T3 construct: pET-22b(+) NdeI/XhoI, C-terminal His6 (kept), E. coli BL21(DE3), Ni-NTA purified; GH1, EC 3.2.1.21; residues V227, H228, N301, V302
T3 sequence (D0VEC8 1-449 H228T): T2 sequence (D0VEC8 1-449) with H228T

[4] = test system: T4, O=[N+]([O-])c1ccc(O[C@@H]2O[C@H](CO)[C@@H](O)[C@H](O)[C@H]2O)cc1; experiment: purified protein; format: biochemical, uncultured bacterium; details: no glucose, 50 mM Na2HPO4-citric acid buffer pH 7.0, optimal conditions
T4 construct: pET-22b(+) NdeI/XhoI, C-terminal His6 (kept), E. coli BL21(DE3), Ni-NTA purified; GH1, EC 3.2.1.21; residues T228, Q301, F302

[5] = test system: T5, O=[N+]([O-])c1ccc(O[C@@H]2O[C@H](CO)[C@@H](O)[C@H](O)[C@H]2O)cc1; experiment: purified protein; format: biochemical, uncultured bacterium; details: no glucose, 50 mM Na2HPO4-citric acid buffer pH 7.0, optimal conditions
T5 construct: pET-22b(+) NdeI/XhoI, C-terminal His6 (kept), E. coli BL21(DE3), Ni-NTA purified; GH1, EC 3.2.1.21; residues V227, H228, N301, V302

Compound | Km [5] [µM] | Vmax [5] [µM/min] | kcat/Km [5] [M⁻¹ s⁻¹] | further results
OC[C@H]1OC(O)[C@H](O)[C@@H](O)[C@@H]1O (stereo partly drawn) [glucose] | – | – | – | relative activity [1]: Bgl1A displayed high glucose tolerance, and was stimulated by low concentrations of glucose; relative activity [2]: the activity of Bgl1B was persistently inhibited by glucose; relative activity [3]: only B:H228T exhibited glucose stimulation, essentially distinctive from wild-type Bgl1B
Bgl1A (uncultured bacterium) | – | – | – | Km [4]: 690 ± 70 µM; Vmax [4]: 2.7 µM/min; kcat/Km [4]: 35500 M⁻¹ s⁻¹
Bgl1B (uncultured bacterium) | 270 ± 20 | 12.6 | 74700 | –
Bgl1B (uncultured bacterium; H228T) | 360 ± 30 | 10.1 | 24200 | –
Bgl1B (uncultured bacterium; N301Q/V302F) | 830 ± 70 | 8.84 | 2860 | –
